Experimental data from patent US20130259876A1 (Regeneron, published 2013).
Residue numbers refer to the chain shown, from its start.

B1: H4H2490N2 (antibody, V domains shown)
VH: QVQLVQSGADVKWPGASVKVSCRASGYTFTGYYMHWVRQAPGQGLEWMGWINPNNGGTNYAQKFQGRVTMTRDTSITTVYMELSSLISDDTAVYYCARGEDLELRNYYYYGMDVWGQGTSVTVSS
VL: DIQMTQSPSSLSASVGDRVTITCRASQSISSYLNWYQQKPGKAPKLLIYAASNLQSGVPSRFSGSGFGTDFTLTISSLQSEDFATYYCQQTYSTRTFGRGTKVEIK
B2: H4H2530S (antibody, V domains shown)
VH: EVQLVESGPGLVKPSQTLSLTCTVSGGSINSGGSYWSWIRQHPGKGLEWIGYIYSSGNTYYKPSLKSRVTISLDTSKNQFSLKMSSVTAADTAIYYCARDPRGITGTHYFDYWGQGTTVTVSS
VL: EIVLTQSPGTLSLSPGERATLSCRTSQSISNKYLAWYQQKPGQAPRLLIYGASTRATGIPDRFSGSGSGTDFTLTISRLEPEDFAVYYCQQFGTSLFTFGPGTKVEIK
B3: H4H2524P (antibody, V domains shown)
VH: QVQLQESGPGLVKPSQTLSLTCTVSGGSISSDGYYWSWIRQHPGKGLEWIGYIYYSGNTYYNPSLKSRVTISVDTSKNHFSLKLSSVTAADTAVYYCTRDPRGITGTHYFDYWGQGTLVTVSS
VL: B2 VL with I29V, N31S, K32S, T54S, E106D
B4: H4H2718N (antibody, V domains shown)
VH: EVQLVESGGGLVQPGRSLRLSCAASGFTFDEYAMHWVRQVPGKGLEWVSGISRNSGTIGYVDSVLGRFTISRDNAKNSLYLQMNSLRPEDTALYYCAKDKGWLLGMDVWGQGTTVTVSS
VL: DIQMTQSPSSLSASVGDRVTITCRASQAIRNDLGWYQQKPGKAPKRLIYAASSLQSGVPSRFSGSGSGTEFALTISSLQPEDFATYYCLQYNSYLYTFGQGTKLEIK
B5: H4H2497N (antibody, V domains shown)
VH: QVQLVESGGGVVQPGRSLRLSCAASGFTFSTYGMDWVRQAPGKGLEWVAVISYDGRNKNYVDSVKGRFTISRDNSKNTLYLQMNSLRAEDSAVYFCAKEGGLGTWYFDLWGRGTLVTVSS
VL: not shown
B6: H4H2480N (antibody, V domains shown)
VH: QVQLQQWGAGLLKPSETLSLTCAVYGGSFSGYYWSWIRQTPGKGLEWIGEISHSGNNNYNPSLKSRVTMSKDTSKNQFSLKLSSVTAADTAVYYCARIQLWLRGNDYYGMDVWGQGITVTVSS
VL: B4 VL with A28G, S56G, A72T, Y91H, L95P, Y96W, L104V

biological target: T1, scHLA-B27-mmH (engineered HLA-B*27 ectodomain in-line fusion protein) (human (HLA-B*2705, beta-2 …)); assay: SPR (Biacore), 25 C, PBS pH 7.2
T1 construct: also called soluble HLA-B*27 fusion protein

Going from B1 to B2, the Kd falls from 239 nM to 0.668 nM (360-fold).

B3 and B4 are within 1.5-fold of each other in Kd: 69 nM for the first, 97.3 nM for the second.

In the case of B5, the Kd is reported as 22.3 nM.

biological target: T1, scHLA-B27-mmH (engineered HLA-B*27 …); assay: SPR (Biacore), mAb captured, 25 C, HBST pH 7.4

Going from B1 to B2, the Kd falls from 259 nM to 1.22 nM (210-fold). The second binds more tightly here.

B3 and B6 are within 1.5-fold of each other in Kd: 23.9 nM for the first, 24 nM for the second.

B4 and B5 are within 1.5-fold of each other in Kd: 44.9 nM for the first, 33.6 nM for the second.

First: B1
Second: B2
The t1/2 of the first is 16-fold lower: 1 min for the first, 16 min for the second.

Compared with B3, B6 is 4.5-fold higher in t1/2: 2 min for the first, 9 min for the second.

First: B4
Second: B5
The t1/2 of the first is 3-fold lower: 4 min for the first, 12 min for the second.

biological target: T1, scHLA-B27-mmH (engineered HLA-B*27 …); assay: SPR (Biacore), mAb captured, 25 C, PBS pH 7.2

Going from B1 to B2, the Kd falls from 239 nM to 0.668 nM (360-fold).

B3 and B4 are within 1.5-fold of each other in Kd: 69 nM for the first, 97.3 nM for the second.

B5 was tested, and the Kd was 22.3 nM.

Going from B1 to B2, the t1/2 rises from 2 min to 43 min (22-fold).

Going from B3 to B4, the t1/2 rises from 1 min to 4 min (4-fold).

Work on B5 yielded a t1/2 of 23 min.

biological target: T1, scHLA-B27-mmH (engineered HLA-B*27 …); assay: SPR (Biacore), mAb captured, 25 C, PBS pH 7.2; 25 C, PBS pH 7.2

B6 gave a t1/2 of 18 min.

biological target: T1, scHLA-B27-mmH (engineered HLA-B*27 …); assay: SPR (Biacore), 25 C, PBS pH 5.75

Compared with B1, B2 is 22-fold lower in Kd: 237 nM for the first, 10.7 nM for the second.

Compared with B3, B6 is 1.6-fold lower in Kd: 204 nM for the first, 129 nM for the second. The second binds more tightly here.

Going from B4 to B5, the Kd falls from 97.5 nM to 33.9 nM (2.9-fold). The second binds more tightly here.

biological target: T1, scHLA-B27-mmH (engineered HLA-B*27 …); assay: SPR (Biacore), mAb captured, 25 C, PBS pH 5.75

Compared with B1, B2 is 22-fold lower in Kd: 237 nM for the first, 10.7 nM for the second. The second binds more tightly here.

First: B3
Second: B6
The Kd of the first is 1.6-fold higher: 204 nM for the first, 129 nM for the second. The second binds more tightly here.

First: B4
Second: B5
The Kd of the first is 2.9-fold higher: 97.5 nM for the first, 33.9 nM for the second. The second binds more tightly here.

Going from B1 to B2, the t1/2 rises from 2 min to 15 min (7.5-fold).

Going from B3 to B6, the t1/2 rises from 2 min to 5 min (2.5-fold).

Compared with B4, B5 is 3-fold higher in t1/2: 4 min for the first, 12 min for the second.

biological target: T1, scHLA-B27-mmH (engineered HLA-B*27 …); assay: SPR (Biacore), mAb captured, 37 C, HBST pH 7.4

First: B1
Second: B2
The Kd of the first is 190-fold higher: 360 nM for the first, 1.88 nM for the second. The second binds more tightly here.

B3 and B4 are within 1.5-fold of each other in Kd: 26.8 nM for the first, 29 nM for the second.

Work on B5 yielded a Kd of 337 nM.

Going from B1 to B2, the t1/2 rises from 1 min to 6 min (6-fold).

Going from B3 to B4, the t1/2 rises from 2 min to 3 min (1.5-fold).

With B5 the t1/2 was 3 min.
